The data set concerns the molecule itself. The experiment in a line: cryo-EM structure; purified NBCn1 (~1.5 mg/ml) in 20 mM Tris-HCl, 115 mM NaCl, 25 mM NaHCO3, pH 7.4, 0.01% LMNG; dimer peak of Superose 6 put on grids; three dimeric states (3.5, 3.4, 3.3 Å), final map 3.3 Å.

B1: N-terminally Strep(II)-tagged wt-human NBCn1-A (natural protein, UniProt Q9Y6M7-1 1-1214, looked up)
chain: MERFRLEKKLPGPDEEAVVDLGKTSSTVNTKFEKEELESHRAVYIGVHVPFSKESRRRHRHRGHKHHHRRRKDKESDKEDGRESPSYDTPSQRVQFILGTEDDDEEHIPHDLFTEMDELCYRDGEEYEWKETARWLKFEEDVEDGGDRWSKPYVATLSLHSLFELRSCILNGTVMLDMRASTLDEIADMVLDNMIASGQLDESIRENVREALLKRHHHQNEKRFTSRIPLVRSFADIGKKHSDPHLLERNGEGLSASRHSLRTGLSASNLSLRGESPLSLLLGHLLPSSRAGTPAGSRCTTPVPTPQNSPPSSPSISRLTSRSSQESQRQAPELLVSPASDDIPTVVIHPPEEDLEAALKGEEQKNEENVDLTPGILASPQSAPGNLDNSKSGEIKGNGSGGSRENSTVDFSKVDMNFMRKIPTGAEASNVLVGEVDFLERPIIAFVRLAPAVLLTGLTEVPVPTRFLFLLLGPAGKAPQYHEIGRSIATLMTDEIFHDVAYKAKDRNDLLSGIDEFLDQVTVLPPGEWDPSIRIEPPKSVPSQEKRKIPVFHNGSTPTLGETPKEAAHHAGPELQRTGRLFGGLILDIKRKAPFFLSDFKDALSLQCLASILFLYCACMSPVITFGGLLGEATEGRISAIESLFGASLTGIAYSLFAGQPLTILGSTGPVLVFEKILYKFCRDYQLSYLSLRTSIGLWTSFLCIVLVATDASSLVCYITRFTEEAFAALICIIFIYEALEKLFDLGETYAFNMHNNLDKLTSYSCVCTEPPNPSNETLAQWKKDNITAHNISWRNLTVSECKKLRGVFLGSACGHHGPYIPDVLFWCVILFFTTFFLSSFLKQFKTKRYFPTKVRSTISDFAVFLTIVIMVTIDYLVGVPSPKLHVPEKFEPTHPERGWIISPLGDNPWWTLLIAAIPALLCTILIFMDQQITAVIINRKEHKLKKGAGYHLDLLMVGVMLGVCSVMGLPWFVAATVLSISHVNSLKVESECSAPGEQPKFLGIREQRVTGLMIFILMGLSVFMTSVLKFIPMPVLYGVFLYMGVSSLKGIQLFDRIKLFGMPAKHQPDLIYLRYVPLWKVHIFTVIQLTCLVLLWVIKVSAAAVVFPMMVLALVFVRKLMDLCFTKRELSWLDDLMPESKKKKEDDKKKKEKEEAERMLQDDDDTVHLPFEGGSLLQIPVKALKYSPDKPVSVKISFEDEPRKKYVDAETSL
modifications: N-acetylglucosamine on Asn776, Asn786 and Asn796; disulfide bonds Cys766-Cys814 and Cys768-Cys802
notes: human NBCn1-A (SLC4A7), NP_003606.3, 1214 aa, full length; the atomic model holds residues 581 to 1207; Homodimer in the cryoEM map; only residues 581-1207 (transmembrane domain and C-terminal helix) were built, the cytoplasmic N-terminal part is not in the model; also called SLC4A7; full-length human NBCn1; source: HEK293 cells, transfected (pcDNA3.1(+)), purified (StrepTrap HP, Superose 6 SEC, …)
Usually stoichiometry N stands for a count of units in the complex or per binding partner. With B1, the “stoichiometry N” value worked out at 2.

The values above are taken from PMC12606367, “CryoEM and computational modeling structural insights into the pH regulator NBCn1” (Nature Communications, 2025).
